{"source": "the supplement of paper PMC10724198", "note": "± gives the standard deviation of the averaged measurements.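 Also: PSI is a weighted mean of sequencing reads over stability bins, variants kept only with over 10 reads, mCherry proximal and sfGFP distal, peptide attached via GGGS linker.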"}
{"system": "Saccharomyces cerevisiae", "experiment": "protein stability index of tFT-peptide fusion (C-terminal peptide) (PSI (0-1 scale)); higher = more stable (slower turnover)", "conditions": "genetic background: doa10 deletion; temperature: 30 C", "method": "(§1)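 MPS profiling in S. cerevisiae of the tFT-X12 degron library: putative degron peptides plus stable controls, 12 aa, fused to the C-terminus of a sfGFP-mCherry timer. Cells are FACS-sorted into 8 mCherry/sfGFP bins and deep-sequenced. PSI runs from 0 (unstable) to 1 (stable). Backgrounds are wild type, das1Δ and doa10Δ at 30 °C, and wild type, das1Δ, cdc34-1 and cdc53-1 at 37 °C; 2-3 technical replicates each.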"}
{"sequence": "RIYIRVSLIAPR", "protein stability index": "0.496 ± 0.034"}
{"sequence": "RLFMVLYRRFVL", "protein stability index": "0.443 ± 0.015"}
{"sequence": "RLVWGGLEMFVC", "protein stability index": "0.109 ± 0.019"}
{"sequence": "RPALVSIFLSAY", "protein stability index": "0.38 ± 0.017"}
{"sequence": "RPLRRPRLPLLL", "protein stability index": "0.363 ± 0.011"}
{"sequence": "RQFRNPLYAFVC", "protein stability index": "0.124 ± 0.0069"}
{"sequence": "RQRQLAKKQKNA", "protein stability index": "0.141 ± 0.032"}
{"sequence": "RRFKINKKNKKF", "protein stability index": "0.172 ± 0.026"}
{"sequence": "RRWGFRSFLVGI", "protein stability index": "0.645 ± 0.041"}
{"sequence": "RSGGVPGFGRLC", "protein stability index": "0.658 ± 0.034"}
{"sequence": "RSLRLFGCLGSL", "protein stability index": "0.658 ± 0.039"}
{"sequence": "RSWMRHVLRVAS", "protein stability index": "0.0958 ± 0.0031"}
{"sequence": "RVDEVVKKLRTL", "protein stability index": "0.0971 ± 0.035"}
{"sequence": "RVHYELEQIVIK", "protein stability index": "0.585 ± 0.053"}
{"sequence": "RVSVNDGRRDSV", "protein stability index": "0.681 ± 0.011"}
{"sequence": "RWFPPPQYLRLV", "protein stability index": "0.19 ± 0.032"}
{"sequence": "RYEKIIKQINKQ", "protein stability index": "0.13 ± 0.034"}
{"sequence": "RYSVIRWMLIVC", "protein stability index": "0.0358 ± 0.01"}
{"sequence": "SALLLWAISIIC", "protein stability index": "0.117 ± 0.019"}
{"sequence": "SCDMIVTLIQIR", "protein stability index": "0.35 ± 0.016"}
{"sequence": "SCICTSCLVLVL", "protein stability index": "0.298 ± 0.011"}
{"sequence": "SCPEFNIRVRNG", "protein stability index": "0.138 ± 0.022"}
{"sequence": "SCSHYRLICSRL", "protein stability index": "0.6118 ± 0.0026"}
{"sequence": "SDVHLKSEALAA", "protein stability index": "0.5543 ± 0.0018"}
{"sequence": "SFFLIISFFVRV", "protein stability index": "0.239 ± 0.028"}
{"sequence": "SFFSFLLLRVPC", "protein stability index": "0.199 ± 0.0044"}
{"sequence": "SFGSMIITYAWG", "protein stability index": "0.491 ± 0.065"}
{"sequence": "SFWLGVGIFFVG", "protein stability index": "0.405 ± 0.013"}
{"sequence": "SFYVWILLWSYY", "protein stability index": "0.223 ± 0.015"}
{"sequence": "SGGRFVLFIIAV", "protein stability index": "0.344 ± 0.022"}
{"sequence": "SGVHWFRGNSWG", "protein stability index": "0.657 ± 0.0087"}
{"sequence": "SHGKDVLNKINS", "protein stability index": "0.146 ± 0.0078"}
{"sequence": "SHTRPPVTAPLH", "protein stability index": "0.668 ± 0.033"}
{"sequence": "SIFSIFFLVRNF", "protein stability index": "0.117 ± 0.0077"}
{"sequence": "SIFSIRRQISFS", "protein stability index": "0.327 ± 0.0085"}
{"sequence": "SILVLGRSVGVG", "protein stability index": "0.451 ± 0.0099"}
{"sequence": "SIQMNCILLLVI", "protein stability index": "0.188 ± 0.032"}
{"sequence": "SKPFPRHIFSLH", "protein stability index": "0.481 ± 0.03"}
{"sequence": "SLCWSYVWVSCP", "protein stability index": "0.21 ± 0.0079"}
{"sequence": "SLFERLSPVLCF", "protein stability index": "0.214 ± 0.008"}
{"sequence": "SLFVLLVSALLH", "protein stability index": "0.18 ± 0.0094"}
{"sequence": "SLGRYVSFLFVV", "protein stability index": "0.106 ± 0.0061"}
{"sequence": "SLLSELILVGVS", "protein stability index": "0.229 ± 0.011"}
{"sequence": "SLLWLYSAFVWY", "protein stability index": "0.188 ± 0.027"}
{"sequence": "SLRCILISTRVK", "protein stability index": "0.317 ± 0.043"}
{"sequence": "SLVFCYSLFVFI", "protein stability index": "0.368 ± 0.044"}
{"sequence": "SLYSFRCFFVLF", "protein stability index": "0.182 ± 0.0065"}
{"sequence": "SPKFMCSLSCWW", "protein stability index": "0.6577 ± 0.0042"}
{"sequence": "SPLLLIIFRSLC", "protein stability index": "0.107 ± 0.0011"}
{"sequence": "SREPPTSTSSRH", "protein stability index": "0.696 ± 0.025"}
{"sequence": "SRFPARCLLCCW", "protein stability index": "0.4309 ± 0.002"}
{"sequence": "SRMIPSAFLLVI", "protein stability index": "0.348 ± 0.012"}
{"sequence": "SSAQKVMELQIV", "protein stability index": "0.223 ± 0.0048"}
{"sequence": "SSLGILHWRLHS", "protein stability index": "0.122 ± 0.022"}
{"sequence": "SVAWFIYVARSI", "protein stability index": "0.282 ± 0.0042"}
{"sequence": "SVCCSLLAVASP", "protein stability index": "0.392 ± 0.029"}
{"sequence": "SVFFALFLRCTP", "protein stability index": "0.43 ± 0.026"}
{"sequence": "SVGVVWVLSVEG", "protein stability index": "0.308 ± 0.0081"}
{"sequence": "SVTFVVYFISGG", "protein stability index": "0.426 ± 0.048"}
{"sequence": "SWAILFVLEGFK", "protein stability index": "0.318 ± 0.019"}
{"system": "Saccharomyces cerevisiae", "experiment": "protein stability index of tFT-peptide fusion (C-terminal peptide) (PSI (0-1 scale)); higher = more stable (slower turnover)", "conditions": "genetic background: wild type; temperature: 30 C", "method": "as §1"}
{"sequence": "RIYIRVSLIAPR", "protein stability index": "0.48 ± 0.014"}
{"sequence": "RLFMVLYRRFVL", "protein stability index": "0.45 ± 0.023"}
{"sequence": "RLVWGGLEMFVC", "protein stability index": "0.131 ± 0.0028"}
{"sequence": "RPALVSIFLSAY", "protein stability index": "0.38 ± 0.021"}
{"sequence": "RPLRRPRLPLLL", "protein stability index": "0.397 ± 0.035"}
{"sequence": "RQFRNPLYAFVC", "protein stability index": "0.137 ± 0.0092"}
{"sequence": "RQRQLAKKQKNA", "protein stability index": "0.181 ± 0.021"}
{"sequence": "RRFKINKKNKKF", "protein stability index": "0.189 ± 0.061"}
{"sequence": "RRWGFRSFLVGI", "protein stability index": "0.647 ± 0.022"}
{"sequence": "RSGGVPGFGRLC", "protein stability index": "0.653 ± 0.022"}
{"sequence": "RSLRLFGCLGSL", "protein stability index": "0.647 ± 0.023"}
{"sequence": "RSWMRHVLRVAS", "protein stability index": "0.104 ± 0.01"}
{"sequence": "RVDEVVKKLRTL", "protein stability index": "0.107 ± 0.028"}
{"sequence": "RVHYELEQIVIK", "protein stability index": "0.574 ± 0.025"}
{"sequence": "RVSVNDGRRDSV", "protein stability index": "0.664 ± 0.015"}
{"sequence": "RWFPPPQYLRLV", "protein stability index": "0.163 ± 0.019"}
{"sequence": "RYEKIIKQINKQ", "protein stability index": "0.164 ± 0.06"}
{"sequence": "RYSVIRWMLIVC", "protein stability index": "0.0321 ± 0.0053"}
{"sequence": "SALLLWAISIIC", "protein stability index": "0.15 ± 0.023"}
{"sequence": "SCDMIVTLIQIR", "protein stability index": "0.383 ± 0.02"}
{"sequence": "SCICTSCLVLVL", "protein stability index": "0.32 ± 0.029"}
{"sequence": "SCPEFNIRVRNG", "protein stability index": "0.168 ± 0.028"}
{"sequence": "SCSHYRLICSRL", "protein stability index": "0.579 ± 0.033"}
{"sequence": "SDVHLKSEALAA", "protein stability index": "0.568 ± 0.02"}
{"sequence": "SFFLIISFFVRV", "protein stability index": "0.224 ± 0.054"}
{"sequence": "SFFSFLLLRVPC", "protein stability index": "0.201 ± 0.026"}
{"sequence": "SFGSMIITYAWG", "protein stability index": "0.486 ± 0.034"}
{"sequence": "SFWLGVGIFFVG", "protein stability index": "0.419 ± 0.023"}
{"sequence": "SFYVWILLWSYY", "protein stability index": "0.214 ± 0.024"}
{"sequence": "SGGRFVLFIIAV", "protein stability index": "0.37 ± 0.023"}
{"sequence": "SGVHWFRGNSWG", "protein stability index": "0.646 ± 0.013"}
{"sequence": "SHGKDVLNKINS", "protein stability index": "0.17 ± 0.013"}
{"sequence": "SHTRPPVTAPLH", "protein stability index": "0.654 ± 0.014"}
{"sequence": "SIFSIFFLVRNF", "protein stability index": "0.12 ± 0.039"}
{"sequence": "SIFSIRRQISFS", "protein stability index": "0.346 ± 0.014"}
{"sequence": "SILVLGRSVGVG", "protein stability index": "0.442 ± 0.01"}
{"sequence": "SIQMNCILLLVI", "protein stability index": "0.186 ± 0.024"}
{"sequence": "SKPFPRHIFSLH", "protein stability index": "0.4981 ± 0.0046"}
{"sequence": "SLCWSYVWVSCP", "protein stability index": "0.241 ± 0.022"}
{"sequence": "SLFERLSPVLCF", "protein stability index": "0.224 ± 0.017"}
{"sequence": "SLFVLLVSALLH", "protein stability index": "0.194 ± 0.033"}
{"sequence": "SLGRYVSFLFVV", "protein stability index": "0.0996 ± 0.016"}
{"sequence": "SLLSELILVGVS", "protein stability index": "0.304 ± 0.018"}
{"sequence": "SLLWLYSAFVWY", "protein stability index": "0.186 ± 0.023"}
{"sequence": "SLRCILISTRVK", "protein stability index": "0.348 ± 0.021"}
{"sequence": "SLVFCYSLFVFI", "protein stability index": "0.347 ± 0.04"}
{"sequence": "SLYSFRCFFVLF", "protein stability index": "0.17 ± 0.012"}
{"sequence": "SPKFMCSLSCWW", "protein stability index": "0.665 ± 0.014"}
{"sequence": "SPLLLIIFRSLC", "protein stability index": "0.119 ± 0.0077"}
{"sequence": "SREPPTSTSSRH", "protein stability index": "0.703 ± 0.011"}
{"sequence": "SRFPARCLLCCW", "protein stability index": "0.449 ± 0.018"}
{"sequence": "SRMIPSAFLLVI", "protein stability index": "0.371 ± 0.02"}
{"sequence": "SSAQKVMELQIV", "protein stability index": "0.257 ± 0.042"}
{"sequence": "SSLGILHWRLHS", "protein stability index": "0.14 ± 0.017"}
{"sequence": "SVAWFIYVARSI", "protein stability index": "0.329 ± 0.011"}
{"sequence": "SVCCSLLAVASP", "protein stability index": "0.384 ± 0.027"}
{"sequence": "SVFFALFLRCTP", "protein stability index": "0.323 ± 0.024"}
{"sequence": "SVGVVWVLSVEG", "protein stability index": "0.343 ± 0.018"}
{"sequence": "SVTFVVYFISGG", "protein stability index": "0.421 ± 0.022"}
{"sequence": "SWAILFVLEGFK", "protein stability index": "0.366 ± 0.011"}
